In one assay the target is FcgRIIB (UniProt P31994). The assay is described as follows: FACS. Background: A flow cytometer gives signals particle by particle.
A further assay has as its target FcgRIIIA (UniProt P08637). Nature of the assay: FACS.

FcgRIIIA, sequence (P08637 17-254): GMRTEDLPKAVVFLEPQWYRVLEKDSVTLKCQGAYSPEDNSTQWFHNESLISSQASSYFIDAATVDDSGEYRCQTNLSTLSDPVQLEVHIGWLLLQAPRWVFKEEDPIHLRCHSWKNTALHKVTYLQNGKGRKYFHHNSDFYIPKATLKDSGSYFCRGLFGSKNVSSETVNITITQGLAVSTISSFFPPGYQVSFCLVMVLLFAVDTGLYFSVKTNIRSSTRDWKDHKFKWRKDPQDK
FcgRIIB, sequence (P31994 43-310): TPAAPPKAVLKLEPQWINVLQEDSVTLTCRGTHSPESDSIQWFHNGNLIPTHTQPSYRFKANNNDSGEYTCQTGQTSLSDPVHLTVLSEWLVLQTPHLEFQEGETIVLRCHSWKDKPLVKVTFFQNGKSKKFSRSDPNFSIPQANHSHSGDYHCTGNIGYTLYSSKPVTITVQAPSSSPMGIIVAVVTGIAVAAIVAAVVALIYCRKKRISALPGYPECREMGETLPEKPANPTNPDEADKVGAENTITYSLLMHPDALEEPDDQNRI

Consider L328F, for which the EC50 (as a rule, the concentration at which the effect is half-maximal) with FcgRIIB came out at 1.85 nM; with FcgRIIIA, 2.51 nM.
On the same counts, the results for N297A are 2 nM and 3.67 nM.
The corresponding values for S267E are 0.64 nM and 1.24 nM.
In the case of SELF, the EC50 in the assay with FcgRIIB amounted to 0.32 nM; with FcgRIIIA, 2.31 nM.

The values above are taken from US20140377253A1.
